Measurements: US20150368338A1 (Janssen / Centocor, published 2015)

T1: IFN-αF (human, UniProt P01568 24-189)
T1 chain: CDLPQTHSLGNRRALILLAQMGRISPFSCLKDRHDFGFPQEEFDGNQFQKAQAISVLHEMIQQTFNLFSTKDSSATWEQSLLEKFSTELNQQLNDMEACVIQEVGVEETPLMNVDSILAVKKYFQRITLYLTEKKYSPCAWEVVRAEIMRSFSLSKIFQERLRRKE


Tests used:
[1] = biological target: IFN-αH2 (human, UniProt P01570 24-189); assay: cell-based or functional assay
[2] = biological target: T2, IFN-αC (human, UniProt P01566 24-189); assay: cell-based or functional assay
[3] = biological target: T1, IFN-αF; assay: cell-based or functional assay
[4] = biological target: T3, IFN-αG (human, UniProt P01569 24-189); assay: cell-based or functional assay
[5] = biological target: T4, human IFN-ω (human, UniProt P05000 24-195); assay: ProteOn SPR, cell supernatant;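 note: each binding measurement used just a single antigen concentration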
T4 construct: Recombinant, HEK293; also called interferon omega

[6] = biological target: T2, IFN-αC; assay: ProteOn SPR, cell supernatant;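 note: each binding measurement used just a single antigen concentration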
[7] = biological target: T1, IFN-αF; assay: ProteOn SPR, cell supernatant;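 note: each binding measurement used just a single antigen concentration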
[8] = biological target: T5, IFN-αJ1 (human, UniProt P01567 24-189); assay: ProteOn SPR, cell supernatant;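 note: each binding measurement used just a single antigen concentration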
T5 construct: Recombinant, HEK293; also called IFN-α7

[9] = biological target: T6, IFN-α4a (human, UniProt P05014 24-189); assay: ProteOn SPR, cell supernatant;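 note: each binding measurement used just a single antigen concentration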
T6 construct: Recombinant, HEK293; also called IFN-αM1

[10] = biological target: T3, IFN-αG; assay: ProteOn SPR, cell supernatant;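 note: each binding measurement used just a single antigen concentration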
[11] = biological target: T7, IFN-αWA (human, UniProt P05015 24-189); assay: ProteOn SPR, cell supernatant
T7 construct: Recombinant, HEK293; also called IFN-α16

[12] = biological target: IFN-αJ1 (human, UniProt P01567 24-189); assay: cell-based or functional assay
[13] = biological target: IFN-αK (human, UniProt P05013 24-189); assay: cell-based or functional assay
[14] = biological target: IFN-αWA (human, UniProt P05015 24-189); assay: cell-based or functional assay
[15] = biological target: IFN-α4a (human, UniProt P05014 24-189); assay: cell-based or functional assay
[16] = biological target: human IFN-ω (human, UniProt P05000 24-195); assay: cell-based or functional assay
[17] = biological target: IFN-αI (human, UniProt P01571 24-189); assay: cell-based or functional assay

Row | IC50, ISRE assay [1] | IC50, ISRE assay [2] | IC50, ISRE assay [3] | IC50, ISRE assay [4] | Kd [5] | Kd [6] | Kd [7] | Kd [8] | Kd [9] | Kd [10] | Kd [11] | IC50 (pM), ISRE assay [12] | IC50 (pM), ISRE assay [13] | IC50 (pM), ISRE assay [14] | IC50 (pM), ISRE assay [15] | IC50 (pM), ISRE assay [16] | IC50 (pM), ISRE assay [17] | Binder
1 | 0.029 nM | 0.272 nM | 0.066 nM | 0.077 nM | 0.032 nM | 0.041 nM | 0.041 nM | 0.142 nM | 0.178 nM | 0.023 nM | 0.052 nM | – | – | – | – | – | – | IFWM3385 (antibody, IgG1, V domains shown, mAb; IgG1/kappa said of the parent and of selected mAbs; also called IFWB3120) VH: EVQLVQSGAEVKKPGESLKISCKGSGYSFTSYWIGWVRQMPGKGLEWMGIIDPSDSDTRYSPSFQGQVTISADKSISTAYLQWSSLKASDTAMYYCARHPGLAWAPDFDYWGQGTLVTVSS VL: DIQMTQSPSSLSASVGDRVTITCRASQSIGDFLNWYQQKPGKAPKLLIYFASSLQSGVPSRFSGSGSGTDFTLTISSLQPEDFATYYCQQALDFPLTFGQGTKVEIK
2 | – | – | – | – | – | – | – | – | – | – | – | 35700 pM | 7300 pM | 74200 pM | 32800 pM | 43900 pM | – | IFWM371 (antibody, IgG1, V domains shown) VH: EVQLVQSGAEVKKPGESLKISCKGSGYSFTSYWIGWVRQMPGKGLEWMGIIDPSDSDTRYSPSFQGQVTISADKSISTAYLQWSSLKASDTAMYYCARHPGLNWAPDFDYWGQGTLVTVSS VL: not shown
3 | 0.016 nM | 0.068 nM | 0.035 nM | 0.026 nM | 0.02 nM | 0.022 nM | 0.019 nM | 0.036 nM | 0.067 nM | 0.015 nM | 0.039 nM | – | – | – | – | – | – | IFWM3405 (antibody, IgG1, V domains shown, mAb; IgG1/kappa said of the parent and of selected mAbs; also called IFWB3140) VH: EVQLVQSGAEVKKPGESLKISCKGSGYSFTSYWIGWVRQMPGKGLEWMGIIDPSDSDTRYSPSFQGQVTISADKSISTAYLQWSSLKASDTAMYYCARHPGLAWAPDFDYWGQGTLVTVSS VL: DIQMTQSPSSLSASVGDRVTITCRASQSIANNNLNWYQQKPGKAPKLLIHWASSLQSGVPSRFSGSGSGTDFTLTISSLQPEDFATYYCQQGYDTPFTFGQGTKVEIK
4 | – | – | – | – | – | – | – | – | – | – | – | 86 pM | 65 pM | 188 pM | 137 pM | 32 pM | 163 pM | IFWM3314 (antibody, IgG1, V domains shown) VH: EVQLVQSGAEVKKPGESLKISCKGSGYSFTSYWIGWVRQMPGKGLEWMGIIDPSDSDTRYSPSFQGQVTISADKSISTAYLQWSSLKASDTAMYYCARHPGLNWAPDFDYWGQGTLVTVSS VL: DIQMTQSPSSLSASVGDRVTITCRASQSIDRALNWYQQKPGKAPKLLIYFASSLQSGVPSRFSGSGSGTDFTLTISSLQPEDFATYYCQQSFDFPLTFGQGTKVEIK
5 | – | – | – | – | – | – | – | – | – | – | – | 166 pM | 96 pM | 473 pM | 169 pM | 81 pM | 258 pM | IFWM3310 (antibody, IgG1, V domains shown) VH: EVQLVQSGAEVKKPGESLKISCKGSGYSFTSYWIGWVRQMPGKGLEWMGIIDPSDSDTRYSPSFQGQVTISADKSISTAYLQWSSLKASDTAMYYCARHPGLNWAPDFDYWGQGTLVTVSS VL: DIQMTQSPSSLSASVGDRVTITCRASQSIGKSLNWYQQKPGKAPKLLIYFASSLQSGVPSRFSGSGSGTDFTLTISSLQPEDFATYYCQQSYDFPLTFGQGTKVEIK
6 | – | – | – | – | – | – | – | – | – | – | – | 328 pM | 95 pM | 600 pM | 501 pM | 100 pM | 752 pM | IFWM3307 (antibody, IgG1, V domains shown) VH: EVQLVQSGAEVKKPGESLKISCKGSGYSFTSYWIGWVRQMPGKGLEWMGIIDPSDSDTRYSPSFQGQVTISADKSISTAYLQWSSLKASDTAMYYCARHPGLNWAPDFDYWGQGTLVTVSS VL: DIQMTQSPSSLSASVGDRVTITCRASQSIGDFLNWYQQKPGKAPKLLIYFASSLQSGVPSRFSGSGSGTDFTLTISSLQPEDFATYYCQQALDFPLTFGQGTKVEIK
7 | – | – | – | – | – | – | – | – | – | – | – | 363 pM | 59 pM | 894 pM | 295 pM | 40 pM | 478 pM | IFWM3308 (antibody, IgG1, V domains shown) VH: EVQLVQSGAEVKKPGESLKISCKGSGYSFTSYWIGWVRQMPGKGLEWMGIIDPSDSDTRYSPSFQGQVTISADKSISTAYLQWSSLKASDTAMYYCARHPGLNWAPDFDYWGQGTLVTVSS VL: DIQMTQSPSSLSASVGDRVTITCRASQSIAEFLNWYQQKPGKAPKLLIYFASSLQSGVPSRFSGSGSGTDFTLTISSLQPEDFATYYCQQSIDFPLTFGQGTKVEIK
8 | – | – | – | – | – | – | – | – | – | – | – | 126 pM | 57 pM | 237 pM | 112 pM | 31 pM | 157 pM | IFWM3304 (antibody, IgG1, V domains shown) VH: EVQLVQSGAEVKKPGESLKISCKGSGYSFTSYWIGWVRQMPGKGLEWMGIIDPSDSDTRYSPSFQGQVTISADKSISTAYLQWSSLKASDTAMYYCARHPGLNWAPDFDYWGQGTLVTVSS VL: DIQMTQSPSSLSASVGDRVTITCRASQSIGSALNWYQQKPGKAPKLLIYFASSLQSGVPSRFSGSGSGTDFTLTISSLQPEDFATYYCQQSYDFPLTFGQGTKVEIK
9 | 0.033 nM | 0.168 nM | 0.077 nM | 0.055 nM | 0.029 nM | 0.037 nM | 0.052 nM | 0.082 nM | 0.086 nM | 0.052 nM | 0.052 nM | – | – | – | – | – | – | IFWM3410 (antibody, IgG1, V domains shown, mAb; IgG1/kappa said of the parent and of selected mAbs; also called IFWB3145) VH: EVQLVQSGAEVKKPGESLKISCKGSGYSFTSYWIGWVRQMPGKGLEWMGIIDPSDSDTRYSPSFQGQVTISADKSISTAYLQWSSLKASDTAMYYCARHPGLAWAPDFDYWGQGTLVTVSS VL: DIQMTQSPSSLSASVGDRVTITCRASQSIANTNLNWYQQKPGKAPKLLIHWASSLQSGVPSRFSGSGSGTDFTLTISSLQPEDFATYYCQQWYDNPLTFGQGTKVEIK
10 | 0.035 nM | 0.112 nM | 0.064 nM | 0.049 nM | 0.028 nM | 0.029 nM | 0.045 nM | 0.068 nM | 0.103 nM | 0.029 nM | 0.069 nM | – | – | – | – | – | – | IFWM3416 (antibody, IgG1, V domains shown, mAb; IgG1/kappa said of the parent and of selected mAbs; also called IFWB3151) VH: EVQLVQSGAEVKKPGESLKISCKGSGYSFTSYWIGWVRQMPGKGLEWMGIIDPSDSDTRYSPSFQGQVTISADKSISTAYLQWSSLKASDTAMYYCARHPGLAWAPDFDYWGQGTLVTVSS VL: DIQMTQSPSSLSASVGDRVTITCRASQSIRNTNLNWYQQKPGKAPKLLIHWASSLQSGVPSRFSGSGSGTDFTLTISSLQPEDFATYYCQQGYDTPFTFGQGTKVEIK
11 | 0.015 nM | 0.138 nM | 0.043 nM | 0.035 nM | 0.033 nM | 0.023 nM | 0.022 nM | 0.06 nM | 0.135 nM | 0.052 nM | 0.049 nM | – | – | – | – | – | – | IFWM3400 (antibody, IgG1, V domains shown, mAb; IgG1/kappa said of the parent and of selected mAbs; also called IFWB3135) VH: EVQLVQSGAEVKKPGESLKISCKGSGYSFTSYWIGWVRQMPGKGLEWMGIIDPSDSDTRYSPSFQGQVTISADKSISTAYLQWSSLKASDTAMYYCARHPGLAWAPDFDYWGQGTLVTVSS VL: DIQMTQSPSSLSASVGDRVTITCRASQSIADFLNWYQQKPGKAPKLLIYFASSLQSGVPSRFSGSGSGTDFTLTISSLQPEDFATYYCQQSHSFPLTFGQGTKVEIK
12 | 0.013 nM | 0.189 nM | 0.029 nM | 0.029 nM | 0.03 nM | 0.025 nM | 0.021 nM | 0.05 nM | 0.088 nM | 0.03 nM | 0.037 nM | – | – | – | – | – | – | IFWM3399 (antibody, IgG1, V domains shown, mAb; IgG1/kappa said of the parent and of selected mAbs; also called IFWB3134) VH: EVQLVQSGAEVKKPGESLKISCKGSGYSFTSYWIGWVRQMPGKGLEWMGIIDPSDSDTRYSPSFQGQVTISADKSISTAYLQWSSLKASDTAMYYCARHPGLAWAPDFDYWGQGTLVTVSS VL: DIQMTQSPSSLSASVGDRVTITCRASQSIDGALNWYQQKPGKAPKLLIYFASSLQSGVPSRFSGSGSGTDFTLTISSLQPEDFATYYCQQAYDFPLTFGQGTKVEIK
